Experiments:
[1] = target: Myoglobin (UniProt P68082 2-154); assay: plate binding assay (ELONA); off-target; 10 mM HEPES, 1.2 mM NaCl (so in the source), 5 mM MgCl2, 5 mM KCl, pH 7.4, 0.1% Tween-20, 1% sheared salmon sperm DNA, 300 uM dextran sulfate; 60 min; temperature not stated; conditions: protein: commercial; label: fluorescent FluoSphere; 24 bp duplex of strand 1 5' end with handle; rest single-stranded aptamer
[2] = target: VEGF (UniProt P15692-4 27-191); assay: plate binding assay (ELONA); EC50, FluoSphere probe; 10 mM HEPES, 1.2 mM NaCl (so in the source), 5 mM MgCl2, 5 mM KCl, pH 7.4, 0.1% Tween-20, 1% sheared salmon sperm DNA, 300 uM dextran sulfate; 60 min; temperature not stated; conditions: protein: commercial; chain copies: 2; label: fluorescent FluoSphere; 24 bp duplex of strand 1 5' end with handle; rest single-stranded aptamer
[3] = target: T1, HHH peptide (synthetic); assay: plate binding assay (ELONA); 10 mM HEPES, 1.2 mM NaCl (so in the source), 5 mM MgCl2, 5 mM KCl, pH 7.4, 0.1% Tween-20, 1% sheared salmon sperm DNA, 300 uM dextran sulfate; 60 min; temperature not stated; conditions: tags: N-terminal Cys-biotin-PEG2; label: fluorescent FluoSphere; 24 bp duplex of strand 1 5' end with handle; rest single-stranded aptamer
T1 chain: GHHHG

[4] = target: T1, HHH peptide; assay: plate binding assay (ELONA); EC50, Streptavidin APC; 10 mM HEPES, 1.2 mM NaCl (so in the source), 5 mM MgCl2, 5 mM KCl, pH 7.4, 0.1% Tween-20, 1% sheared salmon sperm DNA, 300 uM dextran sulfate; 60 min; temperature not stated; conditions: tags: N-terminal Cys-biotin-PEG2; label: streptavidin conjugates or HRP
[5] = target: T1, HHH peptide; assay: plate binding assay (ELONA); EC50, Streptavidin SureLight APC; 10 mM HEPES, 1.2 mM NaCl (so in the source), 5 mM MgCl2, 5 mM KCl, pH 7.4, 0.1% Tween-20, 1% sheared salmon sperm DNA, 300 uM dextran sulfate; 60 min; temperature not stated; conditions: tags: N-terminal Cys-biotin-PEG2; label: streptavidin conjugates or HRP
[6] = target: T1, HHH peptide; assay: plate binding assay (ELONA); EC50, Streptavidin AlexaFluor 647; 10 mM HEPES, 1.2 mM NaCl (so in the source), 5 mM MgCl2, 5 mM KCl, pH 7.4, 0.1% Tween-20, 1% sheared salmon sperm DNA, 300 uM dextran sulfate; 60 min; temperature not stated; conditions: tags: N-terminal Cys-biotin-PEG2; label: streptavidin conjugates or HRP
[7] = target: T1, HHH peptide; assay: plate binding assay (ELONA); streptavidin conjugate; Fig. S4B legend calls it EC50; 10 mM HEPES, 1.2 mM NaCl (so in the source), 5 mM MgCl2, 5 mM KCl, pH 7.4, 0.1% Tween-20, 1% sheared salmon sperm DNA, 300 uM dextran sulfate; 60 min; temperature not stated; conditions: tags: N-terminal Cys-biotin-PEG2; label: streptavidin conjugates or HRP
[8] = target: T1, HHH peptide; assay: plate binding assay (ELONA); EC50, streptavidin conjugate; 10 mM HEPES, 1.2 mM NaCl (so in the source), 5 mM MgCl2, 5 mM KCl, pH 7.4, 0.1% Tween-20, 1% sheared salmon sperm DNA, 300 uM dextran sulfate; 60 min; temperature not stated; conditions: tags: N-terminal Cys-biotin-PEG2; label: streptavidin conjugate
[9] = target: T1, HHH peptide; assay: plate binding assay (ELONA); EC50, FluoSphere probe; 10 mM HEPES, 1.2 mM NaCl (so in the source), 5 mM MgCl2, 5 mM KCl, pH 7.4, 0.1% Tween-20, 1% sheared salmon sperm DNA, 300 uM dextran sulfate; 60 min; temperature not stated; conditions: tags: N-terminal Cys-biotin-PEG2; label: fluorescent FluoSphere; 24 bp duplex of strand 1 5' end with handle; rest single-stranded aptamer
[10] = target: T2, Her2-his (UniProt P04626 23-652); assay: plate binding assay (ELONA); EC50, FluoSphere probe, avidity; 10 mM HEPES, 1.2 mM NaCl (so in the source), 5 mM MgCl2, 5 mM KCl, pH 7.4, 0.1% Tween-20, 1% sheared salmon sperm DNA, 300 uM dextran sulfate; 60 min; temperature not stated; conditions: protein: commercial; tags: His tag; label: fluorescent FluoSphere; 24 bp duplex of strand 1 5' end with handle; rest single-stranded aptamer
[11] = target: T2, Her2-his; assay: plate binding assay (ELONA); about twofold lower than pre-annealed probe; 10 mM HEPES, 1.2 mM NaCl (so in the source), 5 mM MgCl2, 5 mM KCl, pH 7.4, 0.1% Tween-20, 1% sheared salmon sperm DNA, 300 uM dextran sulfate; 60 min; temperature not stated; conditions: protein: commercial; tags: His tag; label: fluorescent FluoSphere
[12] = target: T2, Her2-his; assay: plate binding assay (ELONA); EC50, Qdot core; 10 mM HEPES, 1.2 mM NaCl (so in the source), 5 mM MgCl2, 5 mM KCl, pH 7.4, 0.1% Tween-20, 1% sheared salmon sperm DNA, 300 uM dextran sulfate; 60 min; temperature not stated; conditions: protein: commercial; tags: His tag; label: Qdot 655; 24 bp duplex of strand 1 5' end with handle; rest single-stranded aptamer

B1: VEGF aptamer annealed to DBCO-P7 handle on nanoparticle (mixed)
DNA 1: CAAGCAGAAGACGGCATACGAGATCCCGTCTTCCAGACAAGAGTGCAGGGGTGTAGATCTCGGTGGTCGCCGTATCATT
DNA 2: ATCTCGTATGCCGTCTTCTGCTTG
modifications: handle 3' iSp9-DBCO coupled to azide-PEG
- binding result [1]: no binding
- apparent K (half saturation) [2]: 5.5 nM

B2: Her2 aptamer annealed to DBCO-P7 handle on nanoparticle (mixed)
DNA 1: CAAGCAGAAGACGGCATACGAGATTCTAAAAGGATTCTTCCCAAGGGGATCCAATTCAAACAGCGTGTAGATCTCGGTGGTCGCCGTATCATT
DNA 2: ATCTCGTATGCCGTCTTCTGCTTG
modifications: handle 3' iSp9-DBCO coupled to azide-PEG
- binding result [3]: no binding

B3: Biotin-B1 (ssDNA)
DNA: CATGCTTCCCCAGGGAGATGGTTTGCCGGTGGGCAGGTTTAGGGTCTGCTCGGGATTGCGGAGGAACATGCGTCGCAAAC
modifications: 5' biotin
- apparent K (half saturation) [4]: 28 nM
- apparent K (half saturation) [5]: 9.9 nM
- apparent K (half saturation) [6]: 43 nM
- Kd [7]: 0.055 µM

B4: Biotin-H3T (ssDNA)
DNA: GTTTGCCGGTGGGCAGGTTTAGGGTCTGCTCGGGATTGCGGAGGAACATGCGTCGCAAAC
modifications: 5' biotin
- apparent K (half saturation) [8]: 30 nM

B5: H3T annealed to DBCO-P7 handle on nanoparticle (mixed)
DNA 1: CAAGCAGAAGACGGCATACGAGATGTTTGCCGGTGGGCAGGTTTAGGGTCTGCTCGGGATTGCGGAGGAACATGCGTCGCAAACGTGTAGATCTCGGTGGTCGCCGTATCATT
DNA 2: ATCTCGTATGCCGTCTTCTGCTTG
modifications: handle 3' iSp9-DBCO coupled to azide-PEG
- apparent K (half saturation) [9]: 12 nM

B6: P7-B1 annealed to DBCO-P7 handle on nanoparticle (mixed)
DNA 1: CAAGCAGAAGACGGCATACGAGATCATGCTTCCCCAGGGAGATGGTTTGCCGGTGGGCAGGTTTAGGGTCTGCTCGGGATTGCGGAGGAACATGCGTCGCAAACGTGTAGATCTCGGTGGTCGCCGTATCATT
DNA 2: ATCTCGTATGCCGTCTTCTGCTTG
modifications: handle 3' iSp9-DBCO coupled to azide-PEG
- apparent K (half saturation) [9]: 2.7 nM
- apparent K (half saturation) [10]: 5.2 nM

B7: DBCO-B1 directly conjugated to nanoparticle (ssDNA)
DNA: CAAGCAGAAGACGGCATACGAGATCATGCTTCCCCAGGGAGATGGTTTGCCGGTGGGCAGGTTTAGGGTCTGCTCGGGATTGCGGAGGAACATGCGTCGCAAACGTGTAGATCTCGGTGGTCGCCGTATCATT
modifications: 5' DBCO-C7 coupled to azide-PEG
- binding result [11]: binds

B8: P7-B1 annealed to DBCO-P7 handle on Qdot 655 (mixed)
DNA 1: CAAGCAGAAGACGGCATACGAGATCATGCTTCCCCAGGGAGATGGTTTGCCGGTGGGCAGGTTTAGGGTCTGCTCGGGATTGCGGAGGAACATGCGTCGCAAACGTGTAGATCTCGGTGGTCGCCGTATCATT
DNA 2: ATCTCGTATGCCGTCTTCTGCTTG
modifications: handle 3' iSp9-DBCO coupled to azide-PEG
- apparent K (half saturation) [12]: 55 nM
